# Measured values: US20260097138A1, “BIOMATERIAL COATED NANOSTRUCTURES FOR PHOTOACOUSTIC IMAGING AND PHOTOTHERMAL THERAPY OF TUMOR LESIONS” (OSPEDALE SAN RAFFAELE S.R.L., priority 2022, published 2026)
# Values joined by “and” are separate entries in the source; they are usually repeats but may differ in a detail not shown here. Equal entries are not always repeated.
# Assays:
# [1] = In vitro PAI of GNRs in agar drops; details: agar drop, no IL
# Source text: (§1) US and PAI of GNRs@Chit and GNRs@Chit-Iso4: High-resolution US and PA imaging have been acquired using the Vevo LAZR-X platform (FUJIFILM VisualSonics, Inc., Toronto, ON, Canada). The imaging platform includes a high frequency US system (Vevo 3100) combined with an Nd:YAG nano-second pulsed laser with repetition rate of 20 Hz. The linear US transducer array Mx 550D consists of 256 elements with a nominal center frequency of 40 MHz (25-55 MHz bandwidth) and a spatial resolution of 40 μm with a maximum imaging depth of 15 mm. Light from the laser is delivered to the tissue through optical fibers mounted on either side of the transducer. During volumetric US-PA acquisitions, a stepper motor is used for the linear translation of the US transducer and optical fibers along the sample. The linear stepper motor moves in steps of a minimum of 0:1 mm while capturing 2-D parallel images, for a maximum 3D range distance of 6.4 cm.
# (§2) 3D B mode scan was carried out for in vitro (drop) and in vivo (mouse bladder) studies. […]
# In vitro PAI of GNRs was carried out as follows: GNRs (30 μl in DPBS with calcium and magnesium) were mixed with a 1% agar solution (30 μl), the mixture was then poured on Parafilm® M (Sigma) and left to solidify in a humidified chamber (FIG. 15). […] PA and US data have been analyzed using VevoLab 3.2.5 software (FIG. 15).
# [2] = Physicochemical characterization of GNRs (VIS-NIR, TEM, zeta potential)
# Protocol: Characterization of the physicochemical properties of GNRs@CTAB, GNRs@Chit and functionalized GNRs@Chit-Iso4: Gold concentration was determined by flame atomic absorption spectroscopy (FAAS) using a SpectraAA 100 Varian spectrometer (Agilent Technologies, Santa Clara, USA). Gold nanorods (100 μL) were dissolved in aqua regia (3 mL) and diluted to 10 mL with ultrapure water prior to analysis. For the calibration of the FAAS analysis, Au standard solutions at 1, 2, 5 and 10 mg/L were prepared by diluting the appropriate amounts of […] TraceCERT® solutions in 30% aqua regia.
# VIS-NIR absorption spectra (range 400-1100 nm) were recorded using a Cary 3500 UV-VIS-NIR modular spectrometer (Agilent Technologies, Santa Clara, USA) using a 1 cm path-length plastic cuvette.
# Transmission Electron Microscopy (TEM) was performed using a TEM/STEM FEI TECNAI F20 operating at 200 keV equipped with a probe for energy-dispersing x-ray spectroscopy (EDX), selected-area electron diffraction (SAED) and High Angle Annular Dark Field Detector (HAADF). Before the analysis, samples were placed on a continuous-carbon film, supported on a copper grid and dried at 120° C.
# Zeta potential measurements were performed using a Zetasizer-nano-S (Malvern Panalytical, Malvern, UK) in DTS1060C-Clear disposable zeta cells, at 25° C.
# 5637 cells = assay: Cell adhesion assay on coated microtiter plates; assay type: cell-based, human; details: crystal violet stain
# Protocol: (§3) The plates were washed and blocked with 2% BSA in DMEM or RPMI-1640 (200 μl/well, 1 h). MB49-Luc and 5637 cells were detached with DPBS-E, washed twice with DPBS, and suspended in DMEM or RPMI-1640 containing 0.1% BSA (binding buffer-3), and added to the coated-plates (1.5×10^5 cells/well, 100 μl). After 1-2 h of incubation at 37° C., 5% CO2, the plates were washed with binding buffer-3. Adherent cells were fixed and stained with 0.5% crystal violet in 20% methanol. After washing with water, the dye was extracted from cells using a 10% acetic acid solution (140 μl/well) and the absorbance at 570 nm was measured using a microplate reader.
# [3] = Stability of GNRs in human urine; assay type: physicochemical; details: 37° C.
# Protocol: Stability of GNRs@Chit and GNRs@Chit-Iso4 in human urine: The stability of GNRs@Chit-Iso4 in human urine was assessed by diluting the GNR solution (0.725 mM of Au in 10 ml of water) with human urine samples (10 ml) collected from 10 healthy adult volunteers (4 males and 6 females) and placed under stirring in a water bath at 37° C. At various time points, 1 mL of the mixture was withdrawn, diluted in 10 mL of cold water (+4° C.) and subjected to VIS-NIR. A urine solution (50% in water) was used as the blank reference in the spectrometric analysis.
# [4] = In vivo PAI of murine bladder after intravesical instillation; design: species or system mice; details: three cycles of manual handling, two washes
# Source text: as §1, §2
# MB49-Luc cells = assay: Cell adhesion assay on coated microtiter plates; assay type: cell-based, murine
# Protocol: as §3
# [5] = test system: MB49-Luc derived orthotopic bladder tumor; assay: PAI of orthotopic MB49-Luc bladder tumor after intravesical instillation; assay type: in vivo, mice; details: for detection of lesions undetectable by US imaging: small orthotopic tumor
# Protocol: Murine orthotopic bladder tumor model: All procedures and studies involving mice were approved by the Institutional Animal Care and Use Committee of San Raffaele Scientific Institute and performed according to the prescribed guidelines (IACUC, approval number 942). Female albino C57BL/6J mice (9 weeks old, weighing about 20 g, Charles River Laboratories, Italy) were anesthetized with ketamine (80 mg/kg) and xylazine (15 mg/kg) and kept in dorsal position. Using a 24-gauge catheter, the bladder of each mouse was emptied and instilled with or without MB49-Luc cells (10^5 cells/100 μl in DPBS). Thirty minutes later the catheter was removed, and mice were allowed to recover and returned to their cage. Tumor growth was monitored by measuring the tumor volume through US imaging (see below) and in vivo bioluminescent quantification after administration of luciferin (15 mg/kg, intra peritoneum) using the non-invasive In Vivo Imaging System (IVIS, PerkinElmer, USA).
# as §1
# 3D B mode scan was carried out for in vitro (drop) and in vivo (mouse bladder) studies. The photoacoustic spectra between 680 nm and 970 nm were scanned with a step size of 5 nm; for the in vivo studies (murine bladder) the 3D multispectral PA scans were acquired selecting PA spectral curve of tissue components melanin, deoxy- and oxy-generated blood, and GNRs; the processed wavelengths (680; 722; 764; 810; 924; 970 nm) were automatically selected from the spectral curve used to spectrally unmix the GNRs signal from other endogenous tissue chromophore signals such as oxy, deoxy hemoglobin. The algorithm reported by Luke et al was used to select these wavelengths which is ideal for separating the signal from GNRs from other endogenous absorbers.
# Data analyses were conducted using the Vevo® Lab software; volumes of interest were obtained by manually drawing Volumes of Interest (VOIs) on 3D B-mode images. GNRs, melanin, oxy- and deoxy-hemoglobin content were estimated through spectral unmixing analyses of the spectroscopic data.
substance,measurement,setting,value
"GNRs@Chit-Iso4: gold nanorods coated with thiolated chitosan, coupled via NHS-PEG12-maleimide crosslinker to the Iso4 peptide",behaviour under pulsed laser with light attenuators without IL,[1],underwent reshaping
same,GNRs length,[2]; TEM,90.2±7.2 nm and 90.2 ± 7.2d nm
same,GNRs width,[2]; TEM,24.9±2.6 nm and 24.9 ± 2.6d nm
same,"λmax (wavelength of max absorbance, longitudinal-LSPR peak)",[2]; VIS-NIR,802 nm
same,Aspect Ratio,[2]; calculated as the length/width ratio,3.62±0.67 and 3.6 ± 0.6
same,cell adhesion to solid phase coated with the substance,5637 cells,induced cell adhesion and spreading
same,incubation time in urine without dramatic loss of optical properties in the NIR,[3],at least 2 h
same,reduction of the absorbance at ~800 nm,"[3]; human urine, first 40 minutes",14%
same,further reduction of the absorbance at ~800 nm,"[3]; human urine, following 80 minutes",7%
same,change in the shape of the LSPR spectrum,"[3]; human urine, up to 2 h",No significant change
same,binding in healthy mice,[4],no binding
same,increase of cell adhesion caused by urine,MB49-Luc cells; MB49-Luc cells in DMEM medium containing 25-75% urine,~20%
same,cell adhesion to solid phase coated with the substance,"MB49-Luc cells; MB49-Luc cells, crystal violet stain",induced cell adhesion and spreading
same,PA signal at tumor without manual handling of urine,"[5]; 3 nmol Au, two washing steps, tumor on the left side",lack of PA signal
same,volume of small tumor detected,[5]; 4 days after MB49-Luc cell implantation,7.9 mm^3
same,detection of lesions undetectable by US imaging,[5],can reveal the presence of lesions undetectable with US imaging and bioluminescence
same,detection of lesions undetectable by US imaging,[5]; listed as GNR@Chit-Iso4,a neoplastic region in the upper region of the bladder that was undetectable by US scan
same,binding in tumor bearing mice by PAI,"[5]; well-established tumor, three cycles of manual handling, two washes","to the three well-established neoplastic lesions at the bottom, lateral side and upper part of the bladder, and not present in non-neoplastic tissue"
